Results as given in patent US8688427B2, “Enzyme catalysts for diels-alder reactions” (University of Washington, priority 2008, dated 2014).

Legend:
Type in all cases: biochemical
[1] = Plate assay of crude cell lysate, second round of active site optimization; conditions: Combinatorial Mutation Results; 4 colonies/Kunkel assayed
Description: Since it was unreasonable to prepare the 176 enzyme variants in large scale, a plate assay was developed in which colonies directly from a Kunkel mutagenesis (8) reaction could be screened. Kunkel mutagenesis reactions were transformed directly into BL21(DE3)™ (Invitrogen) in order to generate each of the desired mutants. Four colonies from each plated reaction was picked and grown at 37° C. in 0.5 mL of LB-Kanamycin overnight. […]. This culture was grown for 2-3 hours at 37° C., after which 50 μL of 10 mM IPTG was added to each well (0.5 mM Final) in order to induce expression. The cells were then grown for 24 hours at 18° C., harvested, and stored at −20° C. until ready for assaying. To assay, crude cell lysate was prepared by resuspending the cells in 500 uL of PBS and lysing through 3 freeze/thaw cycles (15 minutes at −80° C., 40 minutes at 25° C.), followed by centrifugation at 4000 rpm for 30 minutes. […] Samples from each reaction were then quenched and product detected using a liquid chromatography-tandem mass spectroscopy.
To help remove some of this noise, samples showing WT activity were discarded if at least 2 of the other colonies picked from that Kunkel reaction did show an effect on activity (either greater or less than WT). […] The relative effect of each mutation was calculated. […]

Turnover number = conditions: high substrate concentrations: 3 mM diene, 100 mM dienophile, 25 μM enzyme, PBS, 298K
Description: The reaction was carried out in 3 mM diene, 100 mM dienophile, 25 μM enzyme, in PBS at 298K. Turnover number was calculated by subtracting the product formed in the background reaction from the product formed in the enzymatic reaction. This enzyme-produced product was then divided by the protein concentration to determine turnover number.
To quantify the number of turnovers reached before the DA—20—10 was inactivated, a reaction was setup with 25 μM enzyme, 3 mM diene, 100 mM dienophile in a PBS solution and incubated for 160 hours. Time points were taken, quenched, and filtered, and then analyzed using the liquid chromatography mass-spectroscopy assay. A standard curve ranging from 4 mM to 0.03 mM was used to quantify the amount of product produced.

[2] = Production run and effects of knocking out the catalytic residues; conditions: higher enzyme concentrations: 1 mM diene, 50 mM dienophile, 200 μM protein, PBS, 298K
Description: The reaction was carried out in 1 mM diene, 50 mM dienophile, 200 μM enzyme, in PBS at 298K. The proteins assayed are DA—20—10 (υ), Y121F (▴), Q195E (x), and tela scaffold (*), uncatalyzed (λ).
To determine whether the observed activity depends on the designed active site, we investigated the contributions of the designed catalytic residues in DA—20—10 to catalysis. Glutamine 195 was mutated into a glutamate (Q195E) and tyrosine 121 was mutated into a phenylalanine (Y121F). We had originally incorporated a glutamine rather than a glutamate at this position, despite the fact that the carboxylate should make a stronger hydrogen bond with the diene carbamate. This hydrogen bond should increase the energy of the diene HOMO (and thus decrease the energy gap with the dienophile LUMO), and more greatly stabilize the transition state. However, we were concerned that the substantial free energy cost of desolvating the carboxylate would considerably reduce binding affinity for the diene. […] The Y121F mutation decreases catalytic activity by 27-fold, consistent with the removal of a hydrogen bond that contributes to dienophile binding, stabilizes the dienophile LUMO, and is enhanced in the transition state.
Timepoints were taken and measured as previously described over a period of 60 hours.

[3] = Stereospecificity, chiral column LC-MSMS
Description: The transition states which lead to the four possible ortho-stereoisomers are shown above the reaction chromatograms. Background reaction: 2 mM diene and 70 mM dieneophile in a PBS solution for 24 hours at 298 K. DA—20—10 reaction: 50 μM protein, 0.5 mM diene, and 10 mM dieneophile in a PBS solution for 48 hours at 298K. The four stereoisomers were separated using liquid chromatography (11), and samples injected onto a Daicel AD-H column.
A liquid chromatography-tandem mass spectroscopy with a chiral column was used to detect each of the four experimentally observed stereoismers. The chiral column used in this work was the same as in (10), so it was predicted that the product peaks would come out in the same order. To validate that the endo and exo products came out as expected each was synthesized, and run either separately or together to identify the endo and exo peaks. The peaks observed come out in the same order and same time as reported in Cannizzaro et al. (10).
In order to quantify the stereospecificity of DA—20—10, a reaction with 2 mM diene, 70 mM dieneophile, PBS, pH 7.4, in the presence or absence of 80 μM protein was run for 24 hr at 298K. […] The reactions were shaken for 5 minutes, centrifuged for 5 minutes, after which the organic layer was removed and analyzed with a LC-MSMS assay. […]

B1: DA_20_10: DA_20_04 with A272N, Q149R, A173C (protein)
chain: MEIPVIEPLFTKVTEDIPGATGPVFDKNGDFYIVAPYVEVNGKPAGEILRIDLKTGKKTVICKPEVNGYGGIPIGCQCDRDANQLFVADMRLGLLVVQTDGTFEEIAKKDSEGRRMQGCAYCAFDYEGNLWITAPAGEVAPADFTISLREKFGSIYCFTTDGQMIQVDTAFQCPAGIAVRHMNDGRPYQLIVAEQPTKKLWSYDIKGPAKIENKKVWGHIPGTHKGGAAGMDFDEDNNLLVANWGSSHIEVFGPDGGQPKMRIRCPFEKPANLHFKPQTKTIFVTEHENNAVWKFEWQRNGKKQYCETLKFGIFGSLEHHHHHH
modifications: Enzyme catalyst for Diels-Alder reaction
notes: DA_20_04 with A272N, Q149R, A173C
- Relative Effect on Activity [1]: 7.96
- turnovers before the enzyme loses activity (Turnover number): more than 30 turnovers
- diene substrate converted to product [2]: more than 80%
- share of the expected 3R,4S product [3]: > 97%
- stereospecificity ([3]; 2 mM diene, 70 mM dienophile, PBS, pH 7.4, 80 μM protein, 24 hr, 298K): greater than 97 % ee
